# Laboratory results: article PMC4132694 (Cellular signalling, 2013)
# B1: GST-JNK1 (human JNK1α1) (enzyme, UniProt P45983-2 1-384, looked up)
# chain: MSRSKRDNNFYSVEIGDSTFTVLKRYQNLKPIGSGAQGIVCAAYDAILERNVAIKKLSRPFQNQTHAKRAYRELVLMKCVNHKNIIGLLNVFTPQKSLEEFQDVYIVMELMDANLCQVIQMELDHERMSYLLYQMLCGIKHLHSAGIIHRDLKPSNIVVKSDCTLKILDFGLARTAGTSFMMTPYVVTRYYRAPEVILGMGYKENVDLWSVGCIMGEMVCHKILFPGRDYIDQWNKVIEQLGTPCPEFMKKLQPTVRTYVENRPKYAGYSFEKLFPDVLFPADSEHNKLKASQARDLLSKMLVIDASKRISVDEALQHPYINVWYDPSEAEAPPPKIPDKQLDEREHTIEEWKELIYKEVMDLEERTKNGVIRGQPSPLAQVQQ
# B2: full-length wild-type (WT) SMTNL2 (Smoothelin-like 2), [35S]-labeled (natural protein, human, UniProt Q2TAL5-1 1-461, looked up)
# chain: MEPAPDAQEARTVREALGRYEAALEGAVRALHEDMRGLQRGVERRVAEAMRLAGPLARTVADLQRDNQRLQAQLERLTRQVEALGLASGMSPVPGTPGTPSPPPAPGVPDRAPRLGSARFASHATFSLSGRGQSLDHDEASESEMRKTSNSCIMENGHQPGAGPGDGPPEIAQNFSAPDPPRPRPVSLSLRLPHQPVTAITRVSDRFSGETSAAALSPMSAATLGGLNPSPSEVITPWTPSPSEKNSSFTWSVPSSGYGAVTASKHSNSPPLVTPPQSPVSPQPPAITQVHRQGERRRELVRSQTLPRTSEAQARKALFEKWEQETAAGKGKGEARARLKRSQSFGVASASSIKQILLEWCRSKTLGYQHVDLQNFSSSWSDGMAFCALVHSFFPDAFDYNSLSPTQRQKNFELAFTMAENLANCERLIEVEDMMVMGRKPDPMCVFTYVQSLYNHLRRFE
# modifications: [35S]-methionine label
# B3: GST-JNK3 (human JNK3α1) (enzyme, UniProt P53779-2 1-422, looked up)
# chain: MSLHFLYYCSEPTLDVKIAFCQGFDKQVDVSYIAKHYNMSKSKVDNQFYSVEVGDSTFTVLKRYQNLKPIGSGAQGIVCAAYDAVLDRNVAIKKLSRPFQNQTHAKRAYRELVLMKCVNHKNIISLLNVFTPQKTLEEFQDVYLVMELMDANLCQVIQMELDHERMSYLLYQMLCGIKHLHSAGIIHRDLKPSNIVVKSDCTLKILDFGLARTAGTSFMMTPYVVTRYYRAPEVILGMGYKENVDIWSVGCIMGEMVRHKILFPGRDYIDQWNKVIEQLGTPCPEFMKKLQPTVRNYVENRPKYAGLTFPKLFPDSLFPADSEHNKLKASQARDLLSKMLVIDPAKRISVDDALQHPYINVWYDPAEVEAPPPQIYDKQLDEREHTIEEWKELIYKEVMNSEEKTKNGVVKGQPSPSAQVQQ
# How the values were obtained:
# Experiment in all cases: pull-down
# [1] = target: B2
# GST-JNK1 (human JNK1α1) = target: B1
# GST-JNK3 (human JNK3α1) = target: B3
# GST-JNK2 (human JNK2α2) = GST-JNK2 (human JNK2α2) (human, UniProt P45984-1 1-424)
Binder,Kd [1],percent of input bound (GST-JNK1 (human JNK1α1)),percent of input bound (GST-JNK3 (human JNK3α1)),percent of input bound (GST-JNK2 (human JNK2α2))
B1,~50 µM,,,
B2,,8 % of input,50 % of input,65 % of input
B3,~4 µM,,,
